This passage reports IC50 (inhibitor concentration results from patent publication US20060269538A1.

Assay [1] concerns the target variant E (trypsin mutant of SEQ ID NO:5) (human). The assay is described as follows: cell-based or functional assay. As to conditions: scale: % of the serum concentration of anti-plasmin.
Assay [2] has as its target variant D (trypsin mutant of SEQ ID NO:5) (human). Nature of the assay: cell-based or functional assay. As to conditions: scale: % of the serum concentration of anti-plasmin.

variant E (trypsin mutant of SEQ ID NO:5) (human), sequence (chain, as listed by the source mutant): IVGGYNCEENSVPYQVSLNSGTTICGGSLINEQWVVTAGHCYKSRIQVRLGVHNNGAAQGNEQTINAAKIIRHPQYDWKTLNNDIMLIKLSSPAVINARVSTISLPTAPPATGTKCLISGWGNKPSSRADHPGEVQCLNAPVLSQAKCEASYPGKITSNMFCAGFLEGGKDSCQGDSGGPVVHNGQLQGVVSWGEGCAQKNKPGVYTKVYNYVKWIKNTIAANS
variant D (trypsin mutant of SEQ ID NO:5) (human), sequence (chain, as listed by the source mutant limits assumed): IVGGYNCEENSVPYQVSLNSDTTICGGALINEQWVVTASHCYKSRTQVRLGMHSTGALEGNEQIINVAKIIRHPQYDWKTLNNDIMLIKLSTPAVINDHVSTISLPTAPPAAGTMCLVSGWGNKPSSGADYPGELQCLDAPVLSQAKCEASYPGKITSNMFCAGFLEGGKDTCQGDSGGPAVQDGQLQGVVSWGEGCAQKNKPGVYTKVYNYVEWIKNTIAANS

Turning to “antiplasmin (from UniProt P08697 40-491)”, the IC50 (inhibitor concentration at 50% residual proteolytic activity; cleavage of fluorescently labelled TNF-alpha) in assay [1] is 40; in assay [2], 5.
